Assay results as given in patent publication US20200317776A1 (published 2020).
Positions count from the first letter of the chain named.

T1: human TREM2 expressed on cells (human, UniProt Q9NZC2 19-230)
T1 construct: BW5147.G.1.4 cells stably expressing human TREM2 together with Dap12, or endogenous TREM2 of primary human myeloid cells; also called huT2 BW; hTREM2 expressing cell line
T1 sequence: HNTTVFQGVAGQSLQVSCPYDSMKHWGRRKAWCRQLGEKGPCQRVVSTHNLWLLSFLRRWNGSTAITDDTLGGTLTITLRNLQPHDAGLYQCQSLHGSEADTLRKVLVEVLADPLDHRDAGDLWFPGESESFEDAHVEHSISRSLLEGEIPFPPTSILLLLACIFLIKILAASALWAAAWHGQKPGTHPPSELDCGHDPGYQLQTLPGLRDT

T2: human TREM2 Fc fusion (entire TREM2 ECD; only one Fc arm fused to TREM2) (human, UniProt Q9NZC2 19-174)
T2 construct: also called huTREM2-Fc; recombinant hTREM2
T2 sequence: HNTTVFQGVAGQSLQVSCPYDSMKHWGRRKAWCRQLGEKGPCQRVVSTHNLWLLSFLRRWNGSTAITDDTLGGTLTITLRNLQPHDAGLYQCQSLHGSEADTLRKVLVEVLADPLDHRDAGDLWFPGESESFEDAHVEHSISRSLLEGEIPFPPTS

B1: AL2p-h43 (antibody, human IgG1, V domains shown)
VH: QVQLVQSGAEVKKPGASLKVSCKASGYAFSSSWMNWVRQAPGQRLEWIGRIYPGDGDTNYNGEFRVRATLTADTSASTAYMELSSLRSEDTAVYFCARLLRNQPGESYAMDYWGQGTLVTVSS
VL: DVVMTQTPLSLSVTPGQPASISCRSSQSLVHSNGYTYLHWYLQKPGQSPQLLIYKVSNRFSGVPDRFSGSGSGTDFTLKISRVEAEDVGVYYCSQSTRVPYTFGQGTKLEIK
notes: humanized, human IgG1; Fab and IgG formats under one id
B2: AL2p-h24 (antibody, human IgG1, V domains shown)
VH: B1 VH with K12V, V20I, R44G, G62Q, E63K, R65Q, V66G, A76T, T117A
VL: B1 VL with V88L, Y92F
notes: as for B1
B3: AL2p-h27 (antibody, human IgG1, V domains shown)
VH: B1 VH with L18V, R44G, A76T
VL: B1 VL with V88L, Y92F
notes: as for B1
B4: AL2p-h90 (antibody, human IgG1, V domains shown)
VH: B1 VH with L18V, N61A, G62Q, E63K, R65Q, V66G, A68V, L70I, F95Y
VL: DVQMTQSPSSLSASVGDRVTITCRSSQSLVHSNGYTYLHWYQQKPGKSPKLLIYKVSNRFSGVPSRFSGSGSGTDFTLTISSLQPEDFATYYCSQSTRVPYTFGGGTKVEIK
notes: as for B1
B5: AL2p-h25 (antibody, human IgG1, V domains shown)
VH: B1 VH with V20I, R44G, A76T, F95Y, T117A
VL: B1 VL with V88L, Y92F
notes: as for B1

Target: T1, human TREM2 expressed on cells
Experiment: FACS, hTREM2 BW cells
Experimental: To examine cell binding of anti-TREM2 antibodies, recombinant, human TREM2-expressing BW5147.G.1.4 cells (ATCC® TIB48™) were established by stably expressing either mouse TREM2 or human TREM2 together with Dap12 using viral infection. Cells were harvested by scraping, washed in PBS, counted and plated on 96-well U bottom plates at 1)(10⁵ cells/well. The plates were spun at 1,400 rpm for 3 minutes and primary anti-TREM2 or control antibodies were added in FACS buffer (PBS H2% FBS) and incubated on ice for one hour. Cells were subsequently centrifuged as before and washed thrice with FACS buffer. Cells were then incubated with anti-human PE conjugated secondary antibody (BD Biosciences) in FACS buffer for 30 minutes on ice. Cells were again washed thrice with FACS buffer and analyzed on a BD FACS Canto. Binding was measured as mean fluorescence intensity in the APC channel.

| Binder | cell binding (FOB) |
| --- | --- |
| B1 | 91 |
| B2 | 69 |
| B3 | 78 |
| B4 | 126 |
| B5 | 90 |

Target: T2, human TREM2 Fc fusion (entire TREM2 …)
Experiment: BLI, Fab, monovalent
Experimental: Briefly, IgG's were loaded on-line onto AHQ sensors. Sensors were equilibrated off-line in assay buffer for 30 minutes and then monitored on-line for 60 seconds for baseline establishment. For avid binding measurement, sensors with loaded IgGs were exposed to 100 nM antigen (human TREM2 Fc fusion using the entire TREM2 ECD; only one Fc arm was fused to TREM2) for 3 minutes, afterwards they were transferred to assay buffer for 3 minutes for off-rate measurement. Monovalent binding measurements were obtained by loading human TREM2 Fe fusion antigens to AHQ sensor and followed by exposure to 100 nM TREM2 antibody Fab. Kinetics data were fit using a 1:1 binding model in the data analysis software provided by ForteBio. Assay was run at room temperature (25° C.).

| Binder | Kd [nM] |
| --- | --- |
| B1 | 134 |
| B2 | 1150 |
| B3 | 120 |
| B4 | 61.2 |
| B5 | 153 |

Target: human TREM2/DAP12 fusion protein (human, UniProt O43914 41-113, limits assumed)
Sequence (O43914 other isoform, or with tags, fused parts or gaps limits assumed): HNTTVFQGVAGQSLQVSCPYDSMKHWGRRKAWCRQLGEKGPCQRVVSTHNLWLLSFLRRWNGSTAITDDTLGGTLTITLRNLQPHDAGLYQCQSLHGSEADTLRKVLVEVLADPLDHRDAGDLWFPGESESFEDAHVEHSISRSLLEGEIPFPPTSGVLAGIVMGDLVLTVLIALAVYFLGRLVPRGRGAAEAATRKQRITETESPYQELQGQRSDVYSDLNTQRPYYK
Experiment: cell-based or functional assay

| Binder | Soluble luciferase activation at 10 µg/ml Fold over control [fold over control] |
| --- | --- |
| B1 | 8.65 |
| B2 | 4.36 |
| B3 | 7.23 |
| B4 | 4.35 |
| B5 | 7.45 |
